# Measurements published in patent US20090291088A1 (Biogen, published 2009).
# B1: M13-C06 Fab (Fab, V domains shown)
# VH: EVQLLESGGGLVQPGGSLRLSCAASGFTFSIYRMQWVRQAPGKGLEWVSGISPSGGTTWYADSVKGRFTISRDNSKNTLYLQMNSLRAEDTAVYYCARWSGGSGYAFDIWGQGTMVTVSS
# VL: DIQMTQSPLSLSASVGDRVTITCQASRDIRNYLNWYQQKPGKAPKLLIYDASSLQTGVPSRFGGSGSGTDFSFTIGSLQPEDIATYYCQQFDSLPHTFGQGTKLEIK
# notes: Human Fab from a phage library, kappa light chain
# Key:
# [1] = biological target: T1, human IGF-1R expressed on cells (human, UniProt P08069 31-1367); test: flow cytometry, MCF-7 cells
# T1 construct: On MCF-7 tumor cells or on 3T3/CHO transfectants; precursor is processed into alpha and beta subunits; Signal peptide 1-30 left out as stated; also called wild type IGF-1R; IGF-1R 3T3
# [2] = biological target: T2, hIGF-1R-Fc mutant SD001 (Y28A) (human, UniProt P08069 31-933); test: SPR, M13-C06 Fab over captured mutant
# T2 construct: not shown: C-terminal human IgG1-Fc tag
# Procedure: (§1) After, completion of the receptor-Fc loading step, flow rates were elevated to 5 μl/min. […] At the end of each sensorgram, the flow rate was elevated to 30 μl/min and the chip surface was regenerated by 2×10 μL injections of 0.1 M glycine, pH 2.
# [3] = biological target: T3, hIGF-1R-Fc mutant SD002 (M156A) (human, UniProt P08069 31-933); test: SPR, M13-C06 Fab over captured mutant
# T3 construct: not shown: C-terminal human IgG1-Fc tag
# Procedure: as §1
# [4] = biological target: T4, hIGF-1R-Fc mutant SD003 (T188F) (human, UniProt P08069 31-933); test: SPR, M13-C06 Fab over captured mutant
# T4 construct: not shown: C-terminal human IgG1-Fc tag
# Procedure: as §1
# [5] = biological target: T5, hIGF-1R-Fc mutant SD004 (S210H_A211Q) (human, UniProt P08069 31-933); test: SPR, M13-C06 Fab over captured mutant
# T5 construct: not shown: C-terminal human IgG1-Fc tag
# Procedure: as §1
# [6] = biological target: T6, hIGF-1R-Fc mutant SD005 (A217T) (human, UniProt P08069 31-933); test: SPR, M13-C06 Fab over captured mutant
# T6 construct: not shown: C-terminal human IgG1-Fc tag
# Procedure: as §1
# [7] = biological target: T7, hIGF-1R-Fc mutant SD006 (A227K) (human, UniProt P08069 31-933); test: SPR, M13-C06 Fab over captured mutant
# T7 construct: also called SD0006; not shown: C-terminal human IgG1-Fc tag
# Procedure: as §1
# [8] = biological target: T8, hIGF-1R-Fc mutant SD007 (N237G) (human, UniProt P08069 31-933); test: SPR, M13-C06 Fab over captured mutant
# T8 construct: not shown: C-terminal human IgG1-Fc tag
# Procedure: as §1
# [9] = biological target: T9, hIGF-1R-Fc mutant SD008 (S257F) (human, UniProt P08069 31-933); test: SPR, M13-C06 Fab over captured mutant
# T9 construct: not shown: C-terminal human IgG1-Fc tag
# Procedure: as §1
# [10] = biological target: T10, hIGF-1R-Fc mutant SD009 (E264K) (human, UniProt P08069 31-933); test: SPR, M13-C06 Fab over captured mutant
# T10 construct: not shown: C-terminal human IgG1-Fc tag
# Procedure: as §1
# [11] = biological target: T11, hIGF-1R-Fc mutant SD010 (G271D) (human, UniProt P08069 31-933); test: SPR, M13-C06 Fab over captured mutant
# T11 construct: not shown: C-terminal human IgG1-Fc tag
# Procedure: as §1
# [12] = biological target: T12, hIGF-1R-Fc mutant SD011 (G285S_S286T) (human, UniProt P08069 31-933); test: SPR, M13-C06 Fab over captured mutant
# T12 construct: not shown: C-terminal human IgG1-Fc tag
# Procedure: as §1
# [13] = biological target: T13, hIGF-1R-Fc mutant SD012 (E303G) (human, UniProt P08069 31-933); test: SPR, M13-C06 Fab over captured mutant
# T13 construct: not shown: C-terminal human IgG1-Fc tag
# Procedure: as §1
# [14] = biological target: T14, hIGF-1R-Fc mutant SD013 (D405K) (human, UniProt P08069 31-933); test: SPR, M13-C06 Fab over captured mutant
# T14 construct: not shown: C-terminal human IgG1-Fc tag
# Procedure: as §1
# [15] = biological target: T15, hIGF-1R-Fc mutant SD014 (K412A_A413Q) (human, UniProt P08069 31-933); test: SPR, M13-C06 Fab over captured mutant
# T15 construct: not shown: C-terminal human IgG1-Fc tag
# Procedure: as §1
# [16] = biological target: T16, hIGF-1R-Fc mutant SD016 (D531Q_V532N) (human, UniProt P08069 31-933); test: SPR, M13-C06 Fab over captured mutant
# T16 construct: not shown: C-terminal human IgG1-Fc tag
# Procedure: as §1
# [17] = biological target: T17, hIGF-1R-Fc mutant SD017 (I650S) (human, UniProt P08069 31-933); test: SPR, M13-C06 Fab over captured mutant
# T17 construct: not shown: C-terminal human IgG1-Fc tag
# Procedure: as §1
# [18] = biological target: T18, hIGF-1R-Fc mutant SD018 (E665A) (human, UniProt P08069 31-933); test: SPR, M13-C06 Fab over captured mutant
# T18 construct: not shown: C-terminal human IgG1-Fc tag
# Procedure: as §1
# [19] = biological target: T19, hIGF-1R-Fc mutant SD019 (E739W, L741F) (human, UniProt P08069 31-933); test: SPR, M13-C06 Fab over captured mutant
# T19 construct: not shown: C-terminal human IgG1-Fc tag
# Procedure: as §1
binder,measurement,setting,value
B1,EC50,[1],8.8 nM
same,Biacore Relative RUmax,[2],0.6
same,Biacore Relative RUmax,[3],1.2
same,Biacore Relative RUmax,[4],1
same,Biacore Relative RUmax,[5],0.8
same,Biacore Relative RUmax,[6],0.9
same,Biacore Relative RUmax,[7],1.7
same,Biacore Relative RUmax,[8],1.3
same,Biacore Relative RUmax,[9],1.5
same,Biacore Relative RUmax,[10],0.6
same,Biacore Relative RUmax,[11],0.8
same,Biacore Relative RUmax,[12],1.8
same,Biacore Relative RUmax,[13],0.3
same,Biacore Relative RUmax,[14],0.7
same,Biacore Relative RUmax,[15],0.6
same,Biacore Relative RUmax,[16],2
same,Biacore Relative RUmax,[17],2
same,Biacore Relative RUmax,[18],1.7
same,Biacore Relative RUmax,[19],1.9
